One molecule from patent US20100021490A1 (INSTITUT NATIONAL DE LA RECHERCHE AGRONOMIQUE INRA, published 2010) can be followed below.

This test concerns the target T1, N protein of measles virus (Edmonston B strain) (measles virus, Edmonston B strain, UniProt P0DXN6 1-525, limits assumed).
T1 construct: The construct is not described; also called measles virus N protein
T1 sequence: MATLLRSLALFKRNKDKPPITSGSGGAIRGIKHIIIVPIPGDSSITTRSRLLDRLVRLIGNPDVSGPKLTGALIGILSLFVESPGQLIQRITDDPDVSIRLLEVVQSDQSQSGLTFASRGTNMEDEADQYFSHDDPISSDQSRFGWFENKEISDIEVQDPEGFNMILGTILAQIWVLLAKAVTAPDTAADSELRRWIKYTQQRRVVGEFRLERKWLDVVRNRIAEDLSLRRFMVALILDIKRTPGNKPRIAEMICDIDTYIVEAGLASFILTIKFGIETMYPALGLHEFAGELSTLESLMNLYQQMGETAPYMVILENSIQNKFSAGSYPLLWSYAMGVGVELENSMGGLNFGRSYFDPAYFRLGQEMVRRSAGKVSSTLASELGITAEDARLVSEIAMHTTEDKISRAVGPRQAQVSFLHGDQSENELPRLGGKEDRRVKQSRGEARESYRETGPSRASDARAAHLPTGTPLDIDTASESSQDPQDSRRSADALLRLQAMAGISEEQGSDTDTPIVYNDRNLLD
Briefly: coexpression of the P fragment with N, co-purification.

B1: PΔ457N (C-terminal fragment of the measles virus P protein with the N-terminal portion deleted up to residue 456 inclusive) (other, not shown: a dimerising Fc or GST)
chain: GPASRSVIRSIIKSSRLEEDRKRYLMTLLDDIKGANDLAKFHQMLMKIIMK
notes: also called measles PΔ457N
With B1, the binding result is given as “no binding”.
